According to patent US20140348781A1:

Key:
GMCSF receptor (GMCSFR) = GMCSF receptor (GMCSFR) (UniProt Q00941); experiment: cell-based or functional assay
IL9 receptor (IL9R) = IL9 receptor (IL9R) (UniProt Q01114); experiment: cell-based or functional assay
UniProt Q01114, sequence (Q01114 38-468 limits assumed, chain 1 of 2): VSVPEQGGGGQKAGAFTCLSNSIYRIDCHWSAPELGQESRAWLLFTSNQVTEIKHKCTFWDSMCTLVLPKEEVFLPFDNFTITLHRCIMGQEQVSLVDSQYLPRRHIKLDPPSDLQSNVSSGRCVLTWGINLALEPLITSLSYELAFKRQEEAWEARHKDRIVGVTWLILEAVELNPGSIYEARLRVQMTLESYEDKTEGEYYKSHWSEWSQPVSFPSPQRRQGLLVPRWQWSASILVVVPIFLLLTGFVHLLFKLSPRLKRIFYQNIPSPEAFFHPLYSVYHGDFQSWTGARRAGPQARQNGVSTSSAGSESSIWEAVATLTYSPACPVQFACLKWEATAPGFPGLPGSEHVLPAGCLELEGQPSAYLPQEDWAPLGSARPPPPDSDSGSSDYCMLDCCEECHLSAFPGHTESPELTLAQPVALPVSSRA
UniProt Q01114, sequence (P34902 23-369 limits assumed, chain 2 of 2, further chain): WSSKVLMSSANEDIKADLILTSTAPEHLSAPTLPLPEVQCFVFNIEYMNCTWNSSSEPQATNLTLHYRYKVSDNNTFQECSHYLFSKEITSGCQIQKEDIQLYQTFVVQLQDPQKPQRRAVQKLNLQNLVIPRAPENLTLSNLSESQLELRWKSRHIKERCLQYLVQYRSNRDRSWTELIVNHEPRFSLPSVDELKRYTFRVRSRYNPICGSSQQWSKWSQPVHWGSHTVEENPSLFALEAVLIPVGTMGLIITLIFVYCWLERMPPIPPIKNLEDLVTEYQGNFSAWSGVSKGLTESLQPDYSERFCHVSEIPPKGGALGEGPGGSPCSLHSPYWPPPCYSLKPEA

UniProt Q00941, sequence (Q00941 30-388, chain 1 of 2): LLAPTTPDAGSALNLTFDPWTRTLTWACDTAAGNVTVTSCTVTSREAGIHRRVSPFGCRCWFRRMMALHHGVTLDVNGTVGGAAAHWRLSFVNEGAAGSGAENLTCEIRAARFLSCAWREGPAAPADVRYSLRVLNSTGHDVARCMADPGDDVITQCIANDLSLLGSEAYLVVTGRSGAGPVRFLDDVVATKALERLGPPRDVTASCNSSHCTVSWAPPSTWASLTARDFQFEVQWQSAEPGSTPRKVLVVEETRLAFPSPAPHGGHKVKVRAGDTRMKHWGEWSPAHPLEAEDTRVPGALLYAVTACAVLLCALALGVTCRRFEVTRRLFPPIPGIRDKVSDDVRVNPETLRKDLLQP
UniProt Q00941, sequence (P26955 23-896, chain 2 of 2, further chain): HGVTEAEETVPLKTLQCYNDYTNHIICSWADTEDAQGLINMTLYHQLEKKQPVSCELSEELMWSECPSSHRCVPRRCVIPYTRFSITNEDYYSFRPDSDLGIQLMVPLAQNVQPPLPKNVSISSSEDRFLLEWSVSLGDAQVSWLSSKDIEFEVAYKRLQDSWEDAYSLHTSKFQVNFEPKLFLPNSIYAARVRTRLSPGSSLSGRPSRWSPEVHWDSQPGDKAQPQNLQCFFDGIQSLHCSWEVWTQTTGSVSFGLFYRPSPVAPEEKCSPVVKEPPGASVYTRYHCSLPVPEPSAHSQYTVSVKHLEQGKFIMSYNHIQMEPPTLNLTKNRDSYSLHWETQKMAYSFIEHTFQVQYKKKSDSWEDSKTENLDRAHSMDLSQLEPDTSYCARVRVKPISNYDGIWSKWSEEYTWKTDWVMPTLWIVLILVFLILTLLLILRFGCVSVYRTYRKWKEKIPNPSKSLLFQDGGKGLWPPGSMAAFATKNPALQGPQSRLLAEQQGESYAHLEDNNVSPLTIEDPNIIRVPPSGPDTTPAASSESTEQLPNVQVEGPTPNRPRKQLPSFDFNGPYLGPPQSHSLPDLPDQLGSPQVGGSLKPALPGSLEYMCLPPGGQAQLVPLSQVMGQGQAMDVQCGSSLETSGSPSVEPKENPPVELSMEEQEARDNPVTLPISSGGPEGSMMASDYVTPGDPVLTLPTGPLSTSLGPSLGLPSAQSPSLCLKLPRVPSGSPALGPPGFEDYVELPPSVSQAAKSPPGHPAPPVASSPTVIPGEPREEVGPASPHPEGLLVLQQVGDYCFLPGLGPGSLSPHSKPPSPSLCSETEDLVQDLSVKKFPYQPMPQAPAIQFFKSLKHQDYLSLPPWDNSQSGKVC

Substance: mouse GIFT9 (fusion of mouse GMCSF and mouse IL9) (ligand)
- proliferative rate of bone marrow derived mast cells (MTT assay, 5 days) (GMCSF receptor (GMCSFR)): 100%
- proliferative rate of bone marrow derived mast cells (MTT assay, 5 days) (IL9 receptor (IL9R)): 100%
